Like-named read-outs stand apart in the source and are kept apart here.
How the values were obtained:
Assay in all cases: EMSA
[1] = target: T1, CSB-HD (helicase-like domain) (human, UniProt Q03468 498-1002)
[2] = target: T1, CSB-HD (helicase-like domain); remark: listed apart in the source
[3] = target: T1, CSB-HD (helicase-like domain); remark: listed apart in the source
[4] = target: T1, CSB-HD (helicase-like domain); remark: listed apart in the source
[5] = target: T1, CSB-HD (helicase-like domain); remark: listed apart in the source

T1 sequence (Q03468 498-1002): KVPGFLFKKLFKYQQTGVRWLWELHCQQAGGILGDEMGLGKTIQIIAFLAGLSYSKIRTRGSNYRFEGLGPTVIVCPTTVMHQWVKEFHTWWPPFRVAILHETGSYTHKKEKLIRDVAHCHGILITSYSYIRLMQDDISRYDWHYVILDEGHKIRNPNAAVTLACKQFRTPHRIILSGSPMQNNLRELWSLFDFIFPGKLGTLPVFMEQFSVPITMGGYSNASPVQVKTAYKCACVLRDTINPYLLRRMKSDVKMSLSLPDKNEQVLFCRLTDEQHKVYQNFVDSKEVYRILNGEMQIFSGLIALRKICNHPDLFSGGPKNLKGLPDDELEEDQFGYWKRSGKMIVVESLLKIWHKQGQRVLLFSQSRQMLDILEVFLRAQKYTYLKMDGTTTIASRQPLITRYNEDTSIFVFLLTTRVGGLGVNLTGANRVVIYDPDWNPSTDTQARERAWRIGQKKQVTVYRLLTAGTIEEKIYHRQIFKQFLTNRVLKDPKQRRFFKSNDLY

**Q.** For “5'-tailed rDNA, annealed in KCl (intermolecular G4)”, which Kd [1] is on record?
**A.** 0.557 nM

**Q.** For 3'-tailed rDNA, which Kd [1] is on record?
**A.** 0.176 nM

**Q.** For ATAATTATAAATAAATAATGGGGTTTTGGGG (structured_DNA) [5'-tailed O. nova d(G4T4G4)], which Kd [2] is on record?
**A.** 0.00988 nM

**Q.** Does TGAGGGTGGGTAGGGTGGGTAA (structured_DNA) [untailed c-MYC] bind [3]?
**A.** no binding

**Q.** Which Kd [4] does the source give for ATAATTATAAATAAATAATAGGGTCGGGGGGTGGGGCCCGGGCCGGGG (structured_DNA) [5'-tailed rDNA-2] here?
**A.** 0.36 nM

**Q.** Does AGGGTCGGGGGGTGGGGCCCGGGCCGGGG (structured_DNA) [untailed rDNA-2] bind [3]?
**A.** no binding

**Q.** Which Kd [4] does the source give for ATAATTATAAATAAATAATAGGGAGGGAGACGGGGGGG (structured_DNA) [5'-tailed rDNA-3] here?
**A.** 0.977 nM

**Q.** Does AAATGGGTGGGTAGGGTGGGTATAATTATAAATAAATAATA (structured_DNA) [3'-tailed c-MYC] bind [5]?
**A.** no binding

— paper doi:10.1101/2021.03.25.436565
